These results are taken from patent US9944717.

The data set addresses T1, glycosylated recombinant human complement C2 with a N-terminal his-tag.
T1 chain: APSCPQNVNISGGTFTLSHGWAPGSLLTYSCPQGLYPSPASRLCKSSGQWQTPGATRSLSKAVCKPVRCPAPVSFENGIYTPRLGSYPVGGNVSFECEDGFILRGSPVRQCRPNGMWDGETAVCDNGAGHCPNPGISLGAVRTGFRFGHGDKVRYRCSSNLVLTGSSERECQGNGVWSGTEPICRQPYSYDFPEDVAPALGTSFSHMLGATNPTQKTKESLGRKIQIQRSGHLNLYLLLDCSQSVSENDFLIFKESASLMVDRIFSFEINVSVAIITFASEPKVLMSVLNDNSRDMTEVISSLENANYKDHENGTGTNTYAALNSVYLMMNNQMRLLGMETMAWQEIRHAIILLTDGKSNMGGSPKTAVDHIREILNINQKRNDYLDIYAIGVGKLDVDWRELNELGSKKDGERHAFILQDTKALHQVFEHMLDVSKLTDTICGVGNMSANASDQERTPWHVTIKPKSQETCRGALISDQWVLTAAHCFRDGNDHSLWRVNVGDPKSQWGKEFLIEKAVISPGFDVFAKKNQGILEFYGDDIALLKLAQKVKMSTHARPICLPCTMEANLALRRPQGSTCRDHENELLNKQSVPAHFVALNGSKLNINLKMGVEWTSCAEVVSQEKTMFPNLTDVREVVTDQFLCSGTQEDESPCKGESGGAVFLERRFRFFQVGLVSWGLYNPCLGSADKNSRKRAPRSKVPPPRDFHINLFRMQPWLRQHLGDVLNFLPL

B1: plasma-derived activated human C1s (Calbiochem) (protein)
chain: EPTMYGEILSPNYPQAYPSEVEKSWDIEVPEGYGIHLYFTHLDIELSENCAYDSVQIISGDTEEGRLCGQRSSNNPHSPIVEEFQVPYNKLQVIFKSDFSNEERFTGFAAYYVATDINECTDFVDVPCSHFCNNFIGGYFCSCPPEYFLHDDMKNCGVNCSGDVFTALIGEIASPNYPKPYPENSRCEYQIRLEKGFQVVVTLRREDFDVEAADSAGNCLDSLVFVAGDRQFGPYCGHGFPGPLNIETKSNALDIIFQTDLTGQKKGWKLRYHGDPMPCPKEDTPNSVWEPAKAKYVFRDVVQITCLDGFEVVEGRVGATSFYSTCQSNGKWSNSKLKCQPVDCGIPESIENGKVEDPESTLFGSVIRYTCEEPYYYMENGGGGEYHCAGNGSWVNEVLGPELPKCVPVCGVPREPFEEKQRIIGGSDADIKNFPWQVFFDNPWAGGALINEYWVLTAAHVVEGNREPTMYVGSTSVQTSRLAKSKMLTPEHVFIHPGWKLLEVPEGRTNFDNDIALVRLKDPVKMGPTVSPICLPGTSSDYNLMDGDLGLISGWGRTEKRDRAVRLKAARLPVAPLRKCKEVKVEKPTADAEAYVFTPNMICAGGEKGMDSCKGDSGGAFAVQDPNDKTKFYAAGLVSWGPQCGTYGLYTRVKNYVDWIMKTMQENSTPRED
As for B1, the “cleavage of recombinant C2 by C1s (SDS-PAGE, C1s-to-C2 ratio of 1:25)” value was “C1s cleaved recombinant C2 into subcomponents C2a (≈70 kDa) and C2b (≈30 kDa)”.
